# In PMC9435597, “Medical contrast agents as promising tools for biomacromolecular SAXS experiments” (Acta Crystallographica. Section D, Structural Biology, 2022):
# Biological target: the molecule itself
# Assay: SAXS; P1 in solution, 20 mM Tris pH 7.5, 150 mM NaCl, 15°C, flow mode, SWING beamline; contrast series with Gd-HPDO3A (up to 1341 mM) or iohexol (up to 618 mM); CRYSOL fits with a hexameric atomic model, linearity of I(0)^1/2, Rg
protein,measurement,value
"protease 1 from Pyrococcus horikoshii (enzyme, protease 1 (P1) from Pyrococcus horikoshii; Hexamer; also called P1; source: purified following existing protocols (Engilberge et al., 2017)) MKVLFLTANEFEDVELIYPYHRLKEEGHEVYIASFERGTITGKHGYSVKVDLTFDKVNPEEFDALVLPGGRAPERVRLNEKAVSIARKMFSEGKPVASICHGPQILISAGVLRGRKGTSYPGIKDDMINAGVEWVDAEVVVDGNWVSSRVPADLYAWMREFVKLLK",stoichiometry N,6
